According to patent US9410182B2, “Phosphatase coupled glycosyltransferase assay” (Bio-Techne Corporation, priority 2010, dated 2016):

Substrate: N[C@H]1C(O)O[C@H](CO)[C@@H](O[C@@H]2O[C@H](CO)[C@H](O)[C@H](O)[C@H]2O)[C@@H]1O
Experiment: Sialyltransferase activity of ST6Gal 1 assayed with CD73
Assay type: biochemical, human
Conditions: other: acceptor varied, CMP-NeuAc fixed at 0.2 mM; pH 7.5
Text: The GDP-Fucose, UDP-Glucose, CMP-NeuAc, CMP, UDP and GDP used in the following experiments were obtained from Sigma-Aldrich (St Louis, Mo.). The recombinant human Fut7, ST6Gal1, CD73, CD39L3, non-specific alkaline phosphatase TNAP, recombinant Clostridium Difficile toxin B (TcdB) containing the glycosyltransferase domain and Malachite Green Phosphate Detection Kit were obtained from R&D Systems (Minneapolis, Minn.). The 3′-Sialyl-N-acetyllactosamine was obtained from V-LABS, Inc (Convington, La.). Unless otherwise specified, each glycosyltransferase reaction was performed in 50 μL of a buffer of 25 mM Tris, 150 mM NaCl, 5 mM MgCl2 and 5 mM MnCl2, at pH 7.5 in a 96-well plate at room temperature for 20 minutes. […] The plate was then read at 620 nm with a multi-well plate reader.
Sialic acid is negatively charged under normal pH conditions, making sialyltransferases more difficult to assay than other glycosyltransferases. […] The results are shown in FIG. 7, and the specific activities against lactosamine and lactose were determined to be 458 and 41 pmol/min/μg respectively, confirming that the enzyme strongly favors lactosamine structure. The apparent Km and Vmax were determined for one substrate while fixing the other by fitting the data to KaleidaGraph 4 program.

B1: ST6Gal 1 (Homo sapiens) (protein)
chain: MIHTNLKKKFSCCVLVFLLFAVICVWKEKKKGSYYDSFKLQTKEFQVLKSLGKLAMGSDSQSVSSSSTQDPHRGRQTLGSLRGLAKAKPEASFQVWNKDSSSKNLIPRLQKIWKNYLSMNKYKVSYKGPGPGIKFSAEALRCHLRDHVNVSMVEVTDFPFNTSEWEGYLPKESIRTKAGPWGRCAVVSSAGSLKSSQLGREIDDHDAVLRFNGAPTANFQQDVGTKTTIRLMNSQLVTTEKRFLKDSLYNEGILIVWDPSVYHSDIPKWYQNPDYNFFNNYKTYRKLHPNQPFYILKPQMPWELWDILQEISPEEIQPNPPSSGMLGIIIMMTLCDQVDIYEFLPSKRKTDVCYYYQKFFDSACTMGAYHPLLYEKNLVKHLNQGTDEDIYLLGKATLPGFRTIHC
notes: purchased R&D Systems
  Km: 1.8 ± 0.4 mM
  Vmax: 496 ± 38 pmol/min/µg
